Laboratory results taken from paper PMC11629141.

Legend:
[1] = target: FcγRIIB on Raji cells (human (endogenous in Raji)) (UniProt P31994); assay: flow cytometry on cells; 250.000 Raji cells (FcγRIIB+, CD20+) with 6G11 or light chain constructs 1000-0.005 nM (1:5 dilutions), 30 min RT in PBS-B; anti-human Fc PE secondary antibody
[2] = target: 6G11 (BI‐1206), full‐length antibody containing the PGLALA Fc mutations (human); assay: BLI; 6G11 or light chain construct (5 µg/mL) loaded on Protein A biosensors; FcγRIIB 125 to 15.6 nM in 1:2 dilutions, 60 s association, 40 s dissociation in kinetics buffer
Sequence of 6G11 (BI‐1206), full‐length antibody containing the PGLALA Fc mutations (human) (heavy, as listed by the source, chain 1 of 2): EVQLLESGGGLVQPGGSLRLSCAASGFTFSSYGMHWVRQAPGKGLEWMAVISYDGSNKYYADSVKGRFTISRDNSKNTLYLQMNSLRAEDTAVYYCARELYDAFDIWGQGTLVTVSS
Sequence of 6G11 (BI‐1206), full‐length antibody containing the PGLALA Fc mutations (human) (light, as listed by the source, chain 2 of 2): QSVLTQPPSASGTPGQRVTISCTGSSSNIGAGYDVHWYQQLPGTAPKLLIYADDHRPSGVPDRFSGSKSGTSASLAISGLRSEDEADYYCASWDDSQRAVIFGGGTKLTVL

[3] = target: S2B‐6G11 post MMP‐9 digestion and partial removal of the scFv on a 6G11‐based affinity column (human); assay: as above
Sequence of S2B‐6G11 post MMP‐9 digestion and partial removal of the scFv on a 6G11‐based affinity column (human) (heavy, as listed by the source, chain 1 of 2): as the sequence (heavy, as listed by the source, chain 1 of 2) above
Sequence of S2B‐6G11 post MMP‐9 digestion and partial removal of the scFv on a 6G11‐based affinity column (human) (light, as listed by the source, chain 2 of 2): as the sequence (light, as listed by the source, chain 2 of 2) above

[4] = target: S2N‐6G11 (S2N scFv fused to the N‐terminus of the 6G11 light chain via an MMP‐9 cleavable linker), prior to MMP‐9 digestion (human | chicken); assay: as above
Sequence of S2N‐6G11 (S2N scFv fused to the N‐terminus of the 6G11 light chain via an MMP‐9 cleavable linker), prior to MMP‐9 digestion (human | chicken) (heavy, as listed by the source, chain 1 of 4): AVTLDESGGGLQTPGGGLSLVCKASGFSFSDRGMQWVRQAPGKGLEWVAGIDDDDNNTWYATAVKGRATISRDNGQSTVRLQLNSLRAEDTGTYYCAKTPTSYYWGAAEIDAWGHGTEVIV
Sequence of S2N‐6G11 (S2N scFv fused to the N‐terminus of the 6G11 light chain via an MMP‐9 cleavable linker), prior to MMP‐9 digestion (human | chicken) (heavy, as listed by the source, chain 2 of 4): as the sequence (heavy, as listed by the source, chain 1 of 2) above
Sequence of S2N‐6G11 (S2N scFv fused to the N‐terminus of the 6G11 light chain via an MMP‐9 cleavable linker), prior to MMP‐9 digestion (human | chicken) (light, as listed by the source, chain 3 of 4): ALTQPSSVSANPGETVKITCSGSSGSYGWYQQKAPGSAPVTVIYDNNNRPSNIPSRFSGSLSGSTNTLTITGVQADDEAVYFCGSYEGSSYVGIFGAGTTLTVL
Sequence of S2N‐6G11 (S2N scFv fused to the N‐terminus of the 6G11 light chain via an MMP‐9 cleavable linker), prior to MMP‐9 digestion (human | chicken) (light, as listed by the source, chain 4 of 4): as the sequence (light, as listed by the source, chain 2 of 2) above

| EC50 [1] [nM] | Kd [2] [nM] | Kd [3] [nM] | Kd [4] [nM] | Substance |
| --- | --- | --- | --- | --- |
| 0.4 | – | – | – | 6G11 (BI‐1206), full‐length antibody containing the PGLALA Fc mutations |
| – | 32.1 | 5.9 | 8.3 | His‐tagged human FcγRIIB extracellular domain protein (from UniProt P31994 43-217) (domain or fragment) |
